Measurements as given in publication PMC3646564 (Cell, 2013).

Tests used:
[1] = biological target: D. radiodurans PNPase lacking the KH domain (D. radiodurans) (UniProt Q9RSR1); test: native gel or EMSA + other: negative stain electron microscopy
[2] = biological target: D. radiodurans PNPase lacking the S1 domain (D. radiodurans) (UniProt Q9RSR1); test: as above
[3] = biological target: the molecule itself; test: glycerol gradient sedimentation

Molecule: D. radiodurans PNPase lacking the KH domain (from UniProt Q9RSR1 1-779) (enzyme)
- stoichiometry N [1]: 3

Molecule: D. radiodurans PNPase lacking the S1 domain (from UniProt Q9RSR1 1-779) (enzyme)
- stoichiometry N [2]: 3

B1: Salmonella Typhimurium PNPase fused to 3 copies of FLAG (FLAG3-pnp) (enzyme, S. Typhimurium, UniProt Q8ZLT3 1-711, looked up)
chain: MLNPIVRKFQYGQHTVTLETGMMARQATAAVMVSMDDTAVFVTVVGQKKAKPGQDFFPLTVNYQERTYAAGRIPGSFFRREGRPSEGETLIARLIDRPVRPLFPEGFVNEVQVIATVVSVNPQVNPDIVAMIGASAALSLSGIPFNGPIGAARVGYINDQYVLNPTQDELKESKLDLVVAGTEAAVLMVESEAELLSEDTMLGAVVFGHEQQQVVIQAINDLVKEAGKPRWDWQPEAVNDALNARVAALAESRLSDAYRITDKQERYAQVDVIKSETIEQLIAEDETLDANELGEILHAIEKNVVRSRVLAGEPRIDGREKDMIRGLDVRTGVLPRTHGSALFTRGETQALVTATLGTARDAQVLDELMGERTDSFLFHYNFPPYSVGETGMVGSPKRREIGHGRLAKRGVLAVMPDMDKFPYTVRVVSEITESNGSSSMASVCGASLALMDAGVPIKAAVAGIAMGLVKEGDNYVVLSDILGDEDHLGDMDFKVAGSRDGISALQMDIKIEGITKEIMQVALNQAKGARLHILGVMEQAINAPRGDISEFAPRIHTIKISTDKIKDVIGKGGSVIRALTEETGTTIEIEDDGTVKIAATDGEKAKYAIRRIEEITAEIEVGRIYNGKVTRIVDFGAFVAIGGGKEGLVHISQIADKRVEKVTDYLQMGQEVPVKVLEVDRQGRVRLSIKEATEQSQPAAAPEAPASEQAE
- stoichiometry N [3]: 3
